This note sets out measurements from paper PMC10681739, “High-throughput data and modeling reveal insights into the mechanisms of cooperative DNA-binding by transcription factor proteins”.

First the molecules themselves.
B1: Table S2 B row 1459 (dsDNA)
DNA 1: CAGATCCGGCGTGGACGAAGCTCGGGAACTACAACA
DNA 2: TGTTGTAGTTCCCGAGCTTCGTCCACGCCGGATCTG
B2: Table S2 B row 1859 (dsDNA)
DNA 1: GTGAACTTCCTCCCCCACTGCCTATTTTTACAGCAG
DNA 2: CTGCTGTAAAAATAGGCAGTGGGGGAGGAAGTTCAC
B3: Table S2 B row 3031 (dsDNA)
DNA 1: CCCGGGGGCAGGAAATGTCGCCTTACCCTCAGCCTT
DNA 2: AAGGCTGAGGGTAAGGCGACATTTCCTGCCCCCGGG
B4: Table S2 B row 980 (dsDNA)
DNA 1: GCGGGCGGAAGTGCCGAGGTTGTACCTCGGCGCTGG
DNA 2: CCAGCGCCGAGGTACAACCTCGGCACTTCCGCCCGC
B5: Table S2 B row 1434 (dsDNA)
DNA 1: GGCCGGAAGCGCTCTCGTTGGCCCAGCGGCGCTGGA
DNA 2: TCCAGCGCCGCTGGGCCAACGAGAGCGCTTCCGGCC
B6: Table S2 B row 3063 (dsDNA)
DNA 1: GTATCACTTCCTGTTTTCCTCTGTAGCTTACTGCTG
DNA 2: CAGCAGTAAGCTACAGAGGAAAACAGGAAGTGATAC
B7: Table S2 B row 785 (dsDNA)
DNA 1: ATAGTCTCTTCCTGTGTTGCAAATCACAGGTCCACC
DNA 2: GGTGGACCTGTGATTTGCAACACAGGAAGAGACTAT
B8: Table S2 B row 3837 (dsDNA)
DNA 1: CTGCTTCCGGCCCCGGGGTTCGCTACCCCAAAATCC
DNA 2: GGATTTTGGGGTAGCGAACCCCGGGGCCGGAAGCAG
B9: Table S2 B row 1656 (dsDNA)
DNA 1: CTCTGAGCAGGAAGTGACAAATCCACGCAGGGCAGG
DNA 2: CCTGCCCTGCGTGGATTTGTCACTTCCTGCTCAGAG
B10: Table S2 B row 2874 (dsDNA)
DNA 1: TGAGCAAGTTCCTTCCTGTCTGTGCTCCAGGGTTTA
DNA 2: TAAACCCTGGAGCACAGACAGGAAGGAACTTGCTCA
B11: Table S2 B row 1677 (dsDNA)
DNA 1: TGTTTTTGTTTCCGTTTACAAACTACAACAAAGGTG
DNA 2: CACCTTTGTTGTAGTTTGTAAACGGAAACAAAAACA
B12: Table S2 B row 717 (dsDNA)
DNA 1: AATCCCGGAAACGCGGATTCAGCGGAGCGCGGCGAC
DNA 2: GTCGCCGCGCTCCGCTGAATCCGCGTTTCCGGGATT
B13: Table S2 B row 2667 (dsDNA)
DNA 1: GGGATCTACTTCCTCTCTCGGCCTCGGGCGCTGCAC
DNA 2: GTGCAGCGCCCGAGGCCGAGAGAGGAAGTAGATCCC
B14: Table S2 B row 2565 (dsDNA)
DNA 1: AGCCACATCCTGGACAAAAGCTGTTGTCTAGTAACC
DNA 2: GGTTACTAGACAACAGCTTTTGTCCAGGATGTGGCT
B15: Table S2 B row 3509 (dsDNA)
DNA 1: CATGAGAAACATCCTGCCCAACAACCTGACTACAAG
DNA 2: CTTGTAGTCAGGTTGTTGGGCAGGATGTTTCTCATG
B16: Table S2 B row 1297 (dsDNA)
DNA 1: CCTAGAACCGGAAGAGAAAGGGGCTGGGGTGCAGCA
DNA 2: TGCTGCACCCCAGCCCCTTTCTCTTCCGGTTCTAGG
B17: Table S2 B row 1497 (dsDNA)
DNA 1: CAACACAGGATGTGCAGTATTATACGGCAAAGCACT
DNA 2: AGTGCTTTGCCGTATAATACTGCACATCCTGTGTTG
B18: Table S2 B row 3173 (dsDNA)
DNA 1: GACTGCACTTCCTCTGCTTCGAGGTCGGTGCTTAGC
DNA 2: GCTAAGCACCGACCTCGAAGCAGAGGAAGTGCAGTC
B19: Table S2 B row 771 (dsDNA)
DNA 1: AACAGGAAGTGGTCTTAGAGATCATGGGGTTCAGAG
DNA 2: CTCTGAACCCCATGATCTCTAAGACCACTTCCTGTT
B20: Table S2 B row 3959 (dsDNA)
DNA 1: AAGGGCAAAGTCACAGCCACTTCCGCCCAGCGCTTC
DNA 2: GAAGCGCTGGGCGGAAGTGGCTGTGACTTTGCCCTT
B21: Table S2 B row 2465 (dsDNA)
DNA 1: CTACGACTTCCGTGATGCCTTACGGTTGCTGTAGCC
DNA 2: GGCTACAGCAACCGTAAGGCATCACGGAAGTCGTAG
B22: Table S2 B row 2356 (dsDNA)
DNA 1: CTTCTTCCTGCTGAGACTGATACAGCCCGAAAAGCT
DNA 2: AGCTTTTCGGGCTGTATCAGTCTCAGCAGGAAGAAG
B23: Table S2 B row 2829 (dsDNA)
DNA 1: AGTGTCCGCCGCTTCCTGGTTGCGCGTCAGCGCCCA
DNA 2: TGGGCGCTGACGCGCAACCAGGAAGCGGCGGACACT
B24: Table S2 B row 559 (dsDNA)
DNA 1: GCAGCATTTCCTGACTTCTTCGCCCCTGTCGTTGCA
DNA 2: TGCAACGACAGGGGCGAAGAAGTCAGGAAATGCTGC
B25: Table S2 B row 3759 (dsDNA)
DNA 1: AGCGGCTCCTTCCGGCGGCGCCGGTTCCCTTCCCTC
DNA 2: GAGGGAAGGGAACCGGCGCCGCCGGAAGGAGCCGCT
B26: Table S2 B row 1777 (dsDNA)
DNA 1: CCTTCCTTCCGCTGGCAGTAACTAGGCAGTGGACAC
DNA 2: GTGTCCACTGCCTAGTTACTGCCAGCGGAAGGAAGG
B27: Table S2 B row 2489 (dsDNA)
DNA 1: CCTTCCTTCCTGCTGTGTACGTTGGGGTCACAGCAC
DNA 2: GTGCTGTGACCCCAACGTACACAGCAGGAAGGAAGG
B28: Table S2 B row 2744 (dsDNA)
DNA 1: TTAGCACATCCTGGGTACACAGAGCACAGCCTCCTC
DNA 2: GAGGAGGCTGTGCTCTGTGTACCCAGGATGTGCTAA
B29: Table S2 B row 2699 (dsDNA)
DNA 1: CTCAGGAATGCGGAAGTGCTCTGTGAGCACCCACCA
DNA 2: TGGTGGGTGCTCACAGAGCACTTCCGCATTCCTGAG
B30: Table S2 B row 1623 (dsDNA)
DNA 1: ACATTTCCGTTCAGCTCAGTGTTCACGGTGCGAGAC
DNA 2: GTCTCGCACCGTGAACACTGAGCTGAACGGAAATGT

The series has as its target T1, ETS1 (Homo sapiens, UniProt P14921).
T1 sequence: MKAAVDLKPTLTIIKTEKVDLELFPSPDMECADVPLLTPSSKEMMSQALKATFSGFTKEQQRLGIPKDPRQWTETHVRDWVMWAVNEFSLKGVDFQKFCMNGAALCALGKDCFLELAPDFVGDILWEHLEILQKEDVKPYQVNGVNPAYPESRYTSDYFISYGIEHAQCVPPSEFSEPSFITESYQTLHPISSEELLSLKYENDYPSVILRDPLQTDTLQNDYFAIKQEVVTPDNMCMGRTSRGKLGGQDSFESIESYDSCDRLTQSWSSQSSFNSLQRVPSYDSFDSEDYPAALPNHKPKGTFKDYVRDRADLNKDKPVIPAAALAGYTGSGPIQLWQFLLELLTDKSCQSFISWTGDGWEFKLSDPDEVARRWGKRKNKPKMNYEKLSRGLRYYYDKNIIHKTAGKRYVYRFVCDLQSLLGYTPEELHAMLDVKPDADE
The series can be described thus: gcPBM; 1 nM ETS1. Conditions: tags: N-terminal GST (pDEST15), kept (PMC6008103); label: surface-attached array probe.
Regarding B1, the binding signal is 5020 PBM fluorescence, median of replicate spots. For B2, the binding signal is 4830 PBM fluorescence, median of replicate spots. B3: the binding signal was 4680 PBM fluorescence, median of replicate spots. Then B4, with 4750 PBM fluorescence, median of replicate spots; and B5, with 6040 PBM fluorescence, median of replicate spots; and B6, with 30200 PBM fluorescence, median of replicate spots. Then B7, with 7860 PBM fluorescence, median of replicate spots; and B8, with 27500 PBM fluorescence, median of replicate spots; and B9, with 6750 PBM fluorescence, median of replicate spots. The result for B10 reads 5140 PBM fluorescence, median of replicate spots.

Turning to B11, the binding signal was 5730 PBM fluorescence, median of replicate spots. Then B12, with 7670 PBM fluorescence, median of replicate spots; and B13, with 6350 PBM fluorescence, median of replicate spots. Then B14, with 7070 PBM fluorescence, median of replicate spots; and B15, with 5340 PBM fluorescence, median of replicate spots; and B16, with 4610 PBM fluorescence, median of replicate spots.

B17: the binding signal was 6480 PBM fluorescence, median of replicate spots. The result for B18 reads 6100 PBM fluorescence, median of replicate spots; that for B19, 7400 PBM fluorescence, median of replicate spots; that for B20, 7470 PBM fluorescence, median of replicate spots.

Consider B21, for which the binding signal is 7160 PBM fluorescence, median of replicate spots. The result for B22 reads 6230 PBM fluorescence, median of replicate spots; that for B23, 5900 PBM fluorescence, median of replicate spots; that for B24, 6900 PBM fluorescence, median of replicate spots. Then B25, with 6670 PBM fluorescence, median of replicate spots; and B26, with 5510 PBM fluorescence, median of replicate spots. Then B27, with 5450 PBM fluorescence, median of replicate spots; and B28, with 5610 PBM fluorescence, median of replicate spots; and B29, with 4940 PBM fluorescence, median of replicate spots. For the molecule B30, the binding signal is 32300 PBM fluorescence, median of replicate spots.
